Data: patent EP2966448B1, “METHOD FOR THE PREDICTION OR PROGNOSIS OF THE RESPONSE OF A HUMAN SUBJECT SUFFERING FROM CANCER TO TREATMENT WITH AN ANTAGONIST OF THE NK1 RECEPTOR” (priority 2013, dated 2014)

Molecular target: NK1 receptor (human) (UniProt P25103)
Experiment: cell-based or functional assay

Chain of NK1 receptor (human) (P25103 87-407): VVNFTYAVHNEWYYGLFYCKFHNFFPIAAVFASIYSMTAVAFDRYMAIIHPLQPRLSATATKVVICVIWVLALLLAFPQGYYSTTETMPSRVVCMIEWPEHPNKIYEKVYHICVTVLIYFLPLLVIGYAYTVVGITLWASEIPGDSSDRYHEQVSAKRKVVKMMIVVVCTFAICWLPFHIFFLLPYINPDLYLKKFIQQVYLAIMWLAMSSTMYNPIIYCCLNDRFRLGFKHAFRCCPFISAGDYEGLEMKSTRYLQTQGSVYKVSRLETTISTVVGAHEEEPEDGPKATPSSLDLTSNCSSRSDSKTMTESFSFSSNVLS

antibody against NK1 receptor (Sigma-Aldrich, catalogue number S8305)
Percentage of inhibition of cell cultures; Lung carcinoma (non small cell lung carcinoma); cases with presence of ERK: 95%
Percentage of inhibition of cell cultures; Lung carcinoma (non small cell lung carcinoma); cases without presence of AKT: 25%
Percentage of inhibition of cell cultures; Lung carcinoma (non small cell lung carcinoma); cases without presence of ERK: 29%
Percentage of inhibition of cell cultures; Lung carcinoma (non small cell type); Group 1 (expression in less than 20% of the cells): 23%
Percentage of inhibition of cell cultures; Lung carcinoma (non small cell type); Group 2 (expression in 20-80% of the cells): 55%
Percentage of inhibition of cell cultures; Lung carcinoma (non small cell type); Group 3 (expression in more than 80% of the cells): 94%
Percentage of inhibition of cell cultures; Lung carcinoma (non small cell type); Intensity grade 1: 24%
Percentage of inhibition of cell cultures; Lung carcinoma (non small cell type); Intensity grade 2: 55%
Percentage of inhibition of cell cultures; Lung carcinoma (non small cell type); Intensity grade 3: 97%
Percentage of inhibition of cell cultures; Lung carcinoma (small cell lung carcinoma); cases with presence of AKT: 94%
Percentage of inhibition of cell cultures; Lung carcinoma (small cell lung carcinoma); cases with presence of ERK: 94%
Percentage of inhibition of cell cultures; Lung carcinoma (small cell lung carcinoma); cases without presence of AKT: 24%
Percentage of inhibition of cell cultures; Lung carcinoma (small cell lung carcinoma); cases without presence of ERK: 27%
Percentage of inhibition of cell cultures; Lung carcinoma (small cell type); Group 1 (expression in less than 20% of the cells): 24%
Percentage of inhibition of cell cultures; Lung carcinoma (small cell type); Group 2 (expression in 20-80% of the cells): 56%
Percentage of inhibition of cell cultures; Lung carcinoma (small cell type); Group 3 (expression in more than 80% of the cells): 95%
Percentage of inhibition of cell cultures; Lung carcinoma (small cell type); Intensity grade 1: 25%
Percentage of inhibition of cell cultures; Lung carcinoma (small cell type); Intensity grade 2: 54%
Percentage of inhibition of cell cultures; Lung carcinoma (small cell type); Intensity grade 3: 94%
Percentage of inhibition of cell cultures; Malignant Fibrous Histiocytoma.; Group 1 (expression in less than 20% of the cells): 22%
Percentage of inhibition of cell cultures; Malignant Fibrous Histiocytoma.; Group 2 (expression in 20-80% of the cells): 56%
Percentage of inhibition of cell cultures; Malignant Fibrous Histiocytoma.; Group 3 (expression in more than 80% of the cells): 96%
Percentage of inhibition of cell cultures; Malignant Fibrous Histiocytoma.; Intensity grade 1: 25%
Percentage of inhibition of cell cultures; Malignant Fibrous Histiocytoma.; Intensity grade 2: 55%
Percentage of inhibition of cell cultures; Malignant Fibrous Histiocytoma.; Intensity grade 3: 95%
Percentage of inhibition of cell cultures; Melanoma (Nodular Melanoma); cases with presence of AKT: 97%
Percentage of inhibition of cell cultures; Melanoma (Nodular Melanoma); cases with presence of ERK: 90%
Percentage of inhibition of cell cultures; Melanoma (Nodular Melanoma); cases without presence of AKT: 25%
Percentage of inhibition of cell cultures; Melanoma (Nodular Melanoma); cases without presence of ERK: 28%
Percentage of inhibition of cell cultures; Melanoma; Group 1 (expression in less than 20% of the cells): 24%
Percentage of inhibition of cell cultures; Melanoma; Group 2 (expression in 20-80% of the cells): 55%
Percentage of inhibition of cell cultures; Melanoma; Group 3 (expression in more than 80% of the cells): 96%
Percentage of inhibition of cell cultures; Melanoma; Intensity grade 1: 23%
Percentage of inhibition of cell cultures; Melanoma; Intensity grade 2: 56%
Percentage of inhibition of cell cultures; Melanoma; Intensity grade 3: 97%
Percentage of inhibition of cell cultures; Myeloma; Group 1 (expression in less than 20% of the cells): 23%
Percentage of inhibition of cell cultures; Myeloma; Group 2 (expression in 20-80% of the cells): 56%
Percentage of inhibition of cell cultures; Myeloma; Group 3 (expression in more than 80% of the cells): 96%
Percentage of inhibition of cell cultures; Myeloma; Intensity grade 1: 25%
Percentage of inhibition of cell cultures; Myeloma; Intensity grade 2: 56%
Percentage of inhibition of cell cultures; Myeloma; Intensity grade 3: 95%
Percentage of inhibition of cell cultures; Neuroblastoma; Group 1 (expression in less than 20% of the cells): 22%
Percentage of inhibition of cell cultures; Neuroblastoma; Group 2 (expression in 20-80% of the cells): 54%
Percentage of inhibition of cell cultures; Neuroblastoma; Group 3 (expression in more than 80% of the cells): 95%
Percentage of inhibition of cell cultures; Neuroblastoma; Intensity grade 1: 25%
Percentage of inhibition of cell cultures; Neuroblastoma; Intensity grade 2: 53%
Percentage of inhibition of cell cultures; Neuroblastoma; Intensity grade 3: 93%
Percentage of inhibition of cell cultures; Non Hodgkin Lymphoma B (diffuse B cell lymphoma); cases with presence of AKT: 95%
Percentage of inhibition of cell cultures; Non Hodgkin Lymphoma B (diffuse B cell lymphoma); cases with presence of ERK: 98%
Percentage of inhibition of cell cultures; Non Hodgkin Lymphoma B (diffuse B cell lymphoma); cases without presence of AKT: 24%
Percentage of inhibition of cell cultures; Non Hodgkin Lymphoma B (diffuse B cell lymphoma); cases without presence of ERK: 29%
Percentage of inhibition of cell cultures; Non Hodgkin Lymphoma B; Group 1 (expression in less than 20% of the cells): 23%
Percentage of inhibition of cell cultures; Non Hodgkin Lymphoma B; Group 2 (expression in 20-80% of the cells): 54%
Percentage of inhibition of cell cultures; Non Hodgkin Lymphoma B; Group 3 (expression in more than 80% of the cells): 96%
Percentage of inhibition of cell cultures; Non Hodgkin Lymphoma B; Intensity grade 1: 26%
Percentage of inhibition of cell cultures; Non Hodgkin Lymphoma B; Intensity grade 2: 55%
Percentage of inhibition of cell cultures; Non Hodgkin Lymphoma B; Intensity grade 3: 96%
Percentage of inhibition of cell cultures; Non Hodgkin Lymphoma T (diffuse T cell lymphoma); cases with presence of AKT: 94%
Percentage of inhibition of cell cultures; Non Hodgkin Lymphoma T (diffuse T cell lymphoma); cases with presence of ERK: 97%
Percentage of inhibition of cell cultures; Non Hodgkin Lymphoma T (diffuse T cell lymphoma); cases without presence of AKT: 25%
Percentage of inhibition of cell cultures; Non Hodgkin Lymphoma T (diffuse T cell lymphoma); cases without presence of ERK: 27%
Percentage of inhibition of cell cultures; Non Hodgkin Lymphoma T; Group 1 (expression in less than 20% of the cells): 23%
Percentage of inhibition of cell cultures; Non Hodgkin Lymphoma T; Group 2 (expression in 20-80% of the cells): 55%
Percentage of inhibition of cell cultures; Non Hodgkin Lymphoma T; Group 3 (expression in more than 80% of the cells): 96%
Percentage of inhibition of cell cultures; Non Hodgkin Lymphoma T; Intensity grade 1: 27%
Percentage of inhibition of cell cultures; Non Hodgkin Lymphoma T; Intensity grade 2: 56%
Percentage of inhibition of cell cultures; Non Hodgkin Lymphoma T; Intensity grade 3: 95%
Percentage of inhibition of cell cultures; Ovarian carcinoma (Adenocarcinoma); cases with presence of AKT: 95%
Percentage of inhibition of cell cultures; Ovarian carcinoma (Adenocarcinoma); cases with presence of ERK: 96%
Percentage of inhibition of cell cultures; Ovarian carcinoma (Adenocarcinoma); cases without presence of AKT: 24%
Percentage of inhibition of cell cultures; Ovarian carcinoma (Adenocarcinoma); cases without presence of ERK: 24%
Percentage of inhibition of cell cultures; Ovarian carcinoma; Group 1 (expression in less than 20% of the cells): 24%
Percentage of inhibition of cell cultures; Ovarian carcinoma; Group 2 (expression in 20-80% of the cells): 55%
Percentage of inhibition of cell cultures; Ovarian carcinoma; Group 3 (expression in more than 80% of the cells): 97%
Percentage of inhibition of cell cultures; Ovarian carcinoma; Intensity grade 1: 23%
Percentage of inhibition of cell cultures; Ovarian carcinoma; Intensity grade 2: 54%
Percentage of inhibition of cell cultures; Ovarian carcinoma; Intensity grade 3: 96%
Percentage of inhibition of cell cultures; Pancreatic carcinoma (Adenocarcinoma); cases with presence of AKT: 95%
Percentage of inhibition of cell cultures; Pancreatic carcinoma (Adenocarcinoma); cases with presence of ERK: 94%
Percentage of inhibition of cell cultures; Pancreatic carcinoma (Adenocarcinoma); cases without presence of AKT: 94%
Percentage of inhibition of cell cultures; Pancreatic carcinoma (Adenocarcinoma); cases without presence of ERK: 94%
Percentage of inhibition of cell cultures; Pancreatic carcinoma; Group 1 (expression in less than 20% of the cells): 23%
Percentage of inhibition of cell cultures; Pancreatic carcinoma; Group 2 (expression in 20-80% of the cells): 53%
Percentage of inhibition of cell cultures; Pancreatic carcinoma; Group 3 (expression in more than 80% of the cells): 96%
Percentage of inhibition of cell cultures; Pancreatic carcinoma; Intensity grade 1: 22%
Percentage of inhibition of cell cultures; Pancreatic carcinoma; Intensity grade 2: 54%
Percentage of inhibition of cell cultures; Pancreatic carcinoma; Intensity grade 3: 93%
Percentage of inhibition of cell cultures; Prostate carcinoma; Group 1 (expression in less than 20% of the cells): 23%
Percentage of inhibition of cell cultures; Prostate carcinoma; Group 2 (expression in 20-80% of the cells): 57%
Percentage of inhibition of cell cultures; Prostate carcinoma; Group 3 (expression in more than 80% of the cells): 96%
Percentage of inhibition of cell cultures; Prostate carcinoma; Intensity grade 1: 24%
Percentage of inhibition of cell cultures; Prostate carcinoma; Intensity grade 2: 56%
Percentage of inhibition of cell cultures; Prostate carcinoma; Intensity grade 3: 93%
Percentage of inhibition of cell cultures; Prostate carcinoma; cases with presence of AKT: 90%
Percentage of inhibition of cell cultures; Prostate carcinoma; cases with presence of ERK: 90%
Percentage of inhibition of cell cultures; Prostate carcinoma; cases without presence of AKT: 26%
Percentage of inhibition of cell cultures; Prostate carcinoma; cases without presence of ERK: 27%
Percentage of inhibition of cell cultures; Renal cell carcinoma (clear cell renal cell carcinoma); cases with presence of AKT: 94%
Percentage of inhibition of cell cultures; Renal cell carcinoma (clear cell renal cell carcinoma); cases with presence of ERK: 95%
Percentage of inhibition of cell cultures; Renal cell carcinoma (clear cell renal cell carcinoma); cases without presence of AKT: 34%
Percentage of inhibition of cell cultures; Renal cell carcinoma (clear cell renal cell carcinoma); cases without presence of ERK: 32%
Percentage of inhibition of cell cultures; Renal cell carcinoma; Group 1 (expression in less than 20% of the cells): 22%
Percentage of inhibition of cell cultures; Renal cell carcinoma; Group 2 (expression in 20-80% of the cells): 52%
Percentage of inhibition of cell cultures; Renal cell carcinoma; Group 3 (expression in more than 80% of the cells): 94%
Percentage of inhibition of cell cultures; Renal cell carcinoma; Intensity grade 1: 23%
Percentage of inhibition of cell cultures; Renal cell carcinoma; Intensity grade 2: 53%
Percentage of inhibition of cell cultures; Renal cell carcinoma; Intensity grade 3: 97%
Percentage of inhibition of cell cultures; Thyroid carcinoma (follicular carcinoma); cases with presence of AKT: 96%
Percentage of inhibition of cell cultures; Thyroid carcinoma (follicular carcinoma); cases with presence of ERK: 96%
Percentage of inhibition of cell cultures; Thyroid carcinoma (follicular carcinoma); cases without presence of AKT: 24%
Percentage of inhibition of cell cultures; Thyroid carcinoma (follicular carcinoma); cases without presence of ERK: 26%
Percentage of inhibition of cell cultures; Thyroid carcinoma (folliculary type); Group 1 (expression in less than 20% of the cells): 25%
Percentage of inhibition of cell cultures; Thyroid carcinoma (folliculary type); Group 2 (expression in 20-80% of the cells): 54%
Percentage of inhibition of cell cultures; Thyroid carcinoma (folliculary type); Group 3 (expression in more than 80% of the cells): 96%
Percentage of inhibition of cell cultures; Thyroid carcinoma (folliculary type); Intensity grade 1: 26%
Percentage of inhibition of cell cultures; Thyroid carcinoma (folliculary type); Intensity grade 2: 53%
Percentage of inhibition of cell cultures; Thyroid carcinoma (folliculary type); Intensity grade 3: 95%
Percentage of inhibition of cell cultures; Thyroid carcinoma (papillary carcinoma); cases with presence of AKT: 89%
Percentage of inhibition of cell cultures; Thyroid carcinoma (papillary carcinoma); cases with presence of ERK: 89%
Percentage of inhibition of cell cultures; Thyroid carcinoma (papillary carcinoma); cases without presence of AKT: 24%
Percentage of inhibition of cell cultures; Thyroid carcinoma (papillary carcinoma); cases without presence of ERK: 27%
Percentage of inhibition of cell cultures; Thyroid carcinoma (papillary type); Group 1 (expression in less than 20% of the cells): 22%
Percentage of inhibition of cell cultures; Thyroid carcinoma (papillary type); Group 2 (expression in 20-80% of the cells): 53%
Percentage of inhibition of cell cultures; Thyroid carcinoma (papillary type); Group 3 (expression in more than 80% of the cells): 94%
Percentage of inhibition of cell cultures; Thyroid carcinoma (papillary type); Intensity grade 1: 24%
Percentage of inhibition of cell cultures; Thyroid carcinoma (papillary type); Intensity grade 2: 56%
Percentage of inhibition of cell cultures; Thyroid carcinoma (papillary type); Intensity grade 3: 94%
Percentage of inhibition of cell cultures; Undifferentiated Pleomorphic Sarcoma (malignant fibrous histiocytoma grade 3); cases with presence of AKT: 90%
Percentage of inhibition of cell cultures; Undifferentiated Pleomorphic Sarcoma (malignant fibrous histiocytoma grade 3); cases with presence of ERK: 90%
Percentage of inhibition of cell cultures; Undifferentiated Pleomorphic Sarcoma (malignant fibrous histiocytoma grade 3); cases without presence of AKT: 25%
Percentage of inhibition of cell cultures; Undifferentiated Pleomorphic Sarcoma (malignant fibrous histiocytoma grade 3); cases without presence of ERK: 27%
Percentage of inhibition of cell cultures; Urinary bladder carcinoma (transitional cell carcinoma); cases with presence of AKT: 91%
Percentage of inhibition of cell cultures; Urinary bladder carcinoma (transitional cell carcinoma); cases with presence of ERK: 88%
Percentage of inhibition of cell cultures; Urinary bladder carcinoma (transitional cell carcinoma); cases without presence of AKT: 25%
Percentage of inhibition of cell cultures; Urinary bladder carcinoma (transitional cell carcinoma); cases without presence of ERK: 28%
Percentage of inhibition of cell cultures; Urinary bladder carcinoma; Group 1 (expression in less than 20% of the cells): 23%
Percentage of inhibition of cell cultures; Urinary bladder carcinoma; Group 2 (expression in 20-80% of the cells): 54%
Percentage of inhibition of cell cultures; Urinary bladder carcinoma; Group 3 (expression in more than 80% of the cells): 95%
Percentage of inhibition of cell cultures; Urinary bladder carcinoma; Intensity grade 1: 25%
Percentage of inhibition of cell cultures; Urinary bladder carcinoma; Intensity grade 2: 55%
Percentage of inhibition of cell cultures; Urinary bladder carcinoma; Intensity grade 3: 96%
